Assay results reported in paper PMC11969553, “Expression of Human β3GalT5–1 in Insect Cells as Active Glycoforms for the Efficient Synthesis of Cancer-Associated Globo-Series Glycans” (Journal of the American Chemical Society, 2025).
Changes are numbered by the printed parent chain. Numbers in names are those of the source.

B1: soluble β3GalT5-1 (insect) (Homo sapiens) (protein)
chain: NPFKEQSFVYKKDGNFLKLPDTDCRQTPPFLVLLVTSSHKQLAERMAIRQTWGKERMVKGKQLKTFFLLGTTSSAAETKEVDQESQRHGDIIQKDFLDVYYNLTLKTMMGIEWVHRFCPQAAFVMKTDSDMFINVDYLTELLLKKNRTTRFFTGFLKLNEFPIRQPFSKWFVSKSEYPWDRYPPFCSGTGYVFSGDVASQVYNVSKSVPYIKLEDVFVGLCLERLNIRLEELHSQPTFFPGGLRFSVCLFRRIVACHFIKPRTLLDYWQALENSRGEDCPPV
notes: crystal: Phe31-Pro308 stated, Asp41-Pro308 visible
B2: soluble β3GalT5-1 (HEK293) (Homo sapiens; Q69A) (protein)
chain: B1 chain with Q41A
notes: soluble luminal domain N29-V310, no TM; expressed in HEK293 cells, complex-type N-glycans
B3: soluble β3GalT5-1 (HEK293) (Homo sapiens; Q69M) (protein)
chain: B1 chain with Q41M
notes: as for B2
B4: soluble β3GalT5-1 (HEK293) (Homo sapiens; S66A) (protein)
chain: B1 chain with S38A
notes: as for B2
B5: soluble β3GalT5-1 (HEK293) (Homo sapiens; Q69M/S66A) (protein)
chain: B1 chain with S38A, Q41M
notes: as for B2
B6: soluble β3GalT5-1 (HEK293) (Homo sapiens; Q69A/S66A) (protein)
chain: B1 chain with S38A, Q41A
notes: as for B2
B7: soluble β3GalT5-1 (HEK293) (Homo sapiens) (protein)
chain: B1 chain
notes: as for B2
B8: β3GalT5–1 (soluble domain): PNGase F (protein)
parent chain: MAFPKMRLMYICLLVLGALCLYFSMYSLNPFKEQSFVYKKDGNFLKLPDTDCRQTPPFLVLLVTSSHKQLAERMAIRQTWGKERMVKGKQLKTFFLLGTTSSAAETKEVDQESQRHGDIIQKDFLDVYYNLTLKTMMGIEWVHRFCPQAAFVMKTDSDMFINVDYLTELLLKKNRTTRFFTGFLKLNEFPIRQPFSKWFVSKSEYPWDRYPPFCSGTGYVFSGDVASQVYNVSKSVPYIKLEDVFVGLCLERLNIRLEELHSQPTFFPGGLRFSVCLFRRIVACHFIKPRTLLDYWQALENSRGEDCPPV
B9: β3GalT5–1 (soluble domain): expression in HEK293 (complex-type glycoforms) (protein)
parent chain: B8 parent chain
B10: β3GalT5–1 (soluble domain): kifunensine then Endo-H (mono-GlcNAc) (protein)
parent chain: B8 parent chain
B11: β3GalT5–1 (soluble domain): kifunensine (high mannose glycoforms) (protein)
parent chain: B8 parent chain

Legend:
[1] = target: T1, membrane-bound β3GalT5–2 (Homo sapiens, UniProt A0A0A0MS93); experiment: galactosyltransferase activity; assay type: biochemical; conditions: UDP-Gal, with or without 1% LMNG
T1 construct: gene B3GALT5; full length, 314 residues, C-terminal Flag tag, expressed in HEK293 cells, LMNG-extracted, anti-Flag purified
T1 sequence (A0A0A0MS93 1-314): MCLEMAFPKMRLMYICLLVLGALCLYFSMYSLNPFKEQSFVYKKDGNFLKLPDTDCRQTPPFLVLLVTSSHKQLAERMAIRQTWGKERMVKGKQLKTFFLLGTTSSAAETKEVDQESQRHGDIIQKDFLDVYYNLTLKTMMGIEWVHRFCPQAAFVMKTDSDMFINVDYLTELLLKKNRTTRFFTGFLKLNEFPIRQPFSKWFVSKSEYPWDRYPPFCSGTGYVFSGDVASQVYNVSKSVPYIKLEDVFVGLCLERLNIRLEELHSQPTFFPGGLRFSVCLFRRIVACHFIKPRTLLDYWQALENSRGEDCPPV

[2] = target: T2, membrane-bound β3GalT5–1 (Homo sapiens, UniProt Q9Y2C3); experiment: galactosyltransferase activity; assay type: biochemical; conditions: UDP-Gal, with or without 1% LMNG
T2 construct: gene B3GALT5; full length M1-V310, C-terminal Flag tag, expressed in HEK293 cells, LMNG-extracted, anti-Flag purified
T2 sequence (Q9Y2C3 1-310): B8 parent chain

[3] = target: T3, soluble β3GalT5-1 (insect) (Homo sapiens, UniProt Q9Y2C3); experiment: X-ray crystal structure; assay type: binding; conditions: acceptor site, Mn2+
T3 construct: gene B3GALT5; crystal: Phe31-Pro308 stated, Asp41-Pro308 visible
T3 sequence (Q9Y2C3 29-310): B1 chain

[4] = substrate: C=CCO[C@@H]1O[C@H](CO)[C@@H](O[C@@H]2O[C@H](CO)[C@H](O[C@H]3O[C@H](CO)[C@H](O)[C@H](O[C@@H]4O[C@H](CO)[C@H](O)[C@H](O)[C@H]4NC(C)=O)[C@H]3O)[C@H](O)[C@H]2O)[C@H](O)[C@H]1O; experiment: UDP release, Michaelis-Menten fit; assay type: biochemical, Homo sapiens; conditions: 0.1 mM UDP-Gal, HEPES, 0.1 mM MnCl2, 0-4 mM substrate; pH 7.0
Description: UDP release, Michaelis-Menten fit on soluble β3GalT5-1 (insect)

[5] = substrate: O=c1ccn([C@@H]2O[C@H](COP(=O)(O)OP(=O)(O)O[C@H]3O[C@H](CO)[C@H](O)[C@H](O)[C@H]3O)[C@@H](O)[C@H]2O)c(=O)[nH]1; experiment: UDP release, Michaelis-Menten fit; assay type: biochemical, Homo sapiens; conditions: 2 mM Gb4 glycan fixed, 20 mM HEPES pH 7.4, 0.1 mM MnCl2
Description: (§1) UDP release, Michaelis-Menten fit on soluble β3GalT5-1 (HEK293)

[6] = substrate: C=CCO[C@@H]1O[C@H](CO)[C@@H](O[C@@H]2O[C@H](CO)[C@H](O[C@H]3O[C@H](CO)[C@H](O)[C@H](O[C@@H]4O[C@H](CO)[C@H](O)[C@H](O)[C@H]4NC(C)=O)[C@H]3O)[C@H](O)[C@H]2O)[C@H](O)[C@H]1O; experiment: UDP release, Michaelis-Menten fit; assay type: biochemical, Homo sapiens; conditions: 10 mM UDP-sugar (UDP-Gal) fixed, 20 mM HEPES pH 7.4, 0.1 mM MnCl2
Description: as §1

[7] = galactosyltransferase activity assay (Figure S6E); conditions: control: untreated Sf9-expressed enzyme (paucimannose glycoforms)
[8] = Michaelis–Menten kinetics by UDP release; conditions: glycan changed form; control: Sf9 insect cell-expressed enzyme (paucimannose)

| Molecule | Km [5] | kcat [5] | kcat/Km [5] | Km [6] | kcat [6] | kcat/Km [6] | other results |
| --- | --- | --- | --- | --- | --- | --- | --- |
| CC(=O)N[C@H]1[C@H](O[C@H]2[C@@H](O)[C@@H](CO)O[C@H](O[C@@H]3[C@H](O)[C@@H](O)[C@H](O[C@H]4[C@H](O)[C@@H](O)C(O)O[C@@H]4CO)O[C@@H]3CO)[C@@H]2O)O[C@H](CO)[C@H](O)[C@@H]1O (stereo partly shown) [Gb4 glycan] |  |  |  |  |  |  | galactosyltransferase activity [1]: regardless of whether Gb4 or Gb4 glycan was used as a substrate; galactosyltransferase activity [2]: regardless of whether Gb4 or Gb4 glycan was used as a substrate; X-ray crystal structure [3]: the acceptor substrate Gb4 glycan is represented by pink sticks |
| B1 |  |  |  |  |  |  | Km [4]: 660 ± 400 µM; kcat [4]: 0.0583 ± 0.00667 s⁻¹; kcat/Km [4]: 88.3 ± 16.7 M⁻¹ s⁻¹ |
| B2 | 300 ± 50 µM | 0.0497 ± 0.00333 s⁻¹ | 165 ± 63.3 M⁻¹ s⁻¹ | 1210 ± 300 µM | 0.012 ± 0.00117 s⁻¹ | 10 ± 3.33 M⁻¹ s⁻¹ |  |
| B3 | 210 ± 50 µM | 0.0585 ± 0.005 s⁻¹ | 282 ± 103 M⁻¹ s⁻¹ | 420 ± 300 µM | 0.0107 ± 0.00167 s⁻¹ | 25.3 ± 8.33 M⁻¹ s⁻¹ |  |
| B4 | 350 ± 100 µM | 0.276 ± 0.0417 s⁻¹ | 781 ± 408 M⁻¹ s⁻¹ | 1200 ± 200 µM | 0.0777 ± 0.005 s⁻¹ | 64.8 ± 31.7 M⁻¹ s⁻¹ |  |
| B5 | 270 ± 60 µM | 0.0773 ± 0.00667 s⁻¹ | 284 ± 113 M⁻¹ s⁻¹ | 1650 ± 400 µM | 0.0248 ± 0.00167 s⁻¹ | 15 ± 6.67 M⁻¹ s⁻¹ |  |
| B6 | 320 ± 90 µM | 0.0273 ± 0.00333 s⁻¹ | 156 ± 45 M⁻¹ s⁻¹ | 1110 ± 300 µM | 0.00783 ± 0.000833 s⁻¹ | 7 ± 3.33 M⁻¹ s⁻¹ |  |
| B7 | 140 ± 40 µM | 0.125 ± 0.0117 s⁻¹ | 870 ± 293 M⁻¹ s⁻¹ | 1400 ± 200 µM | 0.0448 ± 0.00333 s⁻¹ | 32 ± 16.7 M⁻¹ s⁻¹ |  |
| B8 |  |  |  |  |  |  | enzymatic_activity, fold_change ([7]; glycan lost): decreases |
| B9 |  |  |  |  |  |  | enzymatic_activity, kcat_Km [8]: no change, 5.2 ± 3.0 vs 5.3 ± 1.0 |
| B10 |  |  |  |  |  |  | enzymatic_activity, fold_change ([7]; glycan lost): increases |
| B11 |  |  |  |  |  |  | enzymatic_activity, fold_change ([7]; glycan changed form): increases |
